Where no end group is shown, it is not given here.
Biological target: T1, AMBP-1 (factor H) (Homo sapiens, UniProt P08603)
T1 construct: Total proteins derived from human plasma (2 μl) were electrophoretically fractionated; from tissue; host or cells: human plasma
T1 sequence (P08603 19-1231): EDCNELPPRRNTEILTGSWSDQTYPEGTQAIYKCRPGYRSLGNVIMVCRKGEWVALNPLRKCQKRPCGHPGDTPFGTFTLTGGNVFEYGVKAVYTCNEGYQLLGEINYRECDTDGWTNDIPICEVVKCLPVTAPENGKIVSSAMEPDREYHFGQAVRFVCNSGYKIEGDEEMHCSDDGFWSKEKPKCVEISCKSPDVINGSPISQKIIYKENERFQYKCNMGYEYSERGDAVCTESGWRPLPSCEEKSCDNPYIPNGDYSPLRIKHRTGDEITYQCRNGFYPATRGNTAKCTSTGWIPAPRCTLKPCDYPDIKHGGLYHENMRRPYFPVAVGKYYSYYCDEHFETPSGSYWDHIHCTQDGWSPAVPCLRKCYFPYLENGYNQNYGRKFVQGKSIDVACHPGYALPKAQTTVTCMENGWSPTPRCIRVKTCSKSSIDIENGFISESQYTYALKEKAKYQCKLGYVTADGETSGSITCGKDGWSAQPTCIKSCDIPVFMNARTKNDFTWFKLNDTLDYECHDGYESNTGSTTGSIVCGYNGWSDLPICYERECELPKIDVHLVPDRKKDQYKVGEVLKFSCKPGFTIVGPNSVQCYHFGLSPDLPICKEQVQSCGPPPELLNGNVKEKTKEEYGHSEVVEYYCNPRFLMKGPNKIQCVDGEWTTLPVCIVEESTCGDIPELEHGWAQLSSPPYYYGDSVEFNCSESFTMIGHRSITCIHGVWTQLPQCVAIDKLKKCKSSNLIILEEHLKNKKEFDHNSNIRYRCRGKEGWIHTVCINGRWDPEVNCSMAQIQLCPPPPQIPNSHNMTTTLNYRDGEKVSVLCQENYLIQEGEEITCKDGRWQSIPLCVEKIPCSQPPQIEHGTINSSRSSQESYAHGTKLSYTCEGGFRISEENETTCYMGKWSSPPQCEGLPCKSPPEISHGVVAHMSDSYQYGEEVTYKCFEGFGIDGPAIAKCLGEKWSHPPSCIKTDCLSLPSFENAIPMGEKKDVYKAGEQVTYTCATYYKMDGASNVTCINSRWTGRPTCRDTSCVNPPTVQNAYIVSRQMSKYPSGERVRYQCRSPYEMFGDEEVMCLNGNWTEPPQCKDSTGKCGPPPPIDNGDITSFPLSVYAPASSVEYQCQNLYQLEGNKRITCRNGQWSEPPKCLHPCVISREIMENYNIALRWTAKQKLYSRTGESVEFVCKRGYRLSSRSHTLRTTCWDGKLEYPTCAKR
Experiment: Ligand blot competition of labeled AM binding to plasma AMBP-1
Conditions: 7 μM unlabeled peptide, preincubation 6 hr at 4° C.
Protocol: Total proteins derived from human plasma (2 μl) were electrophoretically fractionated on 3-8% Tris-acetate gel (Novex, San Diego, Calif.) under non-reducing conditions. For the ligand blotting experiment, the proteins were transferred to a […] nitrocellulose membrane that was incubated for […] with 1% Nonidet P-40 (NP-40). Non-specific binding was further blocked with a 2 hr incubation in TBS containing 0.1% ATC. Incubations with 70 nM AM labeled with biotin, fluorescein, or DNP were carried out overnight at 4° C. in blocking buffer containing 0.1% TWEEN® 20 nonionic detergent. For biotin detection, the ligand blot was incubated with an avidin-biotin-peroxidase complex and the AEC reagent (Vector Laboratories, Inc., Burlingame, Calif.). For fluorescein and DNP, the ligand blots were incubated 1 hr at room temperature with rabbit anti-fluorescein or anti-DNP IgG, respectively, (1:1000 in incubation buffer; Molecular Probes, Inc.). Anti-rabbit antibody labeled with alkaline phosphatase (1:2000; Dako Corporation, Carpenteira, Calif.) was added for 0.5 hr, and the blot was developed using 4-nitro blue tetrazolium chloride/5-bromo-4-chloro-3-indolyl phosphate (NBT/BCIP) as the color-substrate solution (Roche Molecular Biochemicals, Indianapolis, Ind.).
Following this preincubation, labeled full-length AM was introduced and incubated overnight at 4° C.
In the case of “AM1-12: AM truncated polypeptide (YRQSMNNFQGLR)”, the “Competition for labeled AM/AMBP-1 complex on ligand blot” value (“Competition” below) is reported as “only full-length AM was able to dissociate”.
In the case of AM13-52: AM truncated polypeptide, the “Competition” value is reported as “only full-length AM was able to dissociate”.
With “AM16-21: AM truncated polypeptide (CRFGTC)” the “Competition” value was “only full-length AM was able to dissociate”.
With AM22-52: AM truncated polypeptide the “Competition” value was “only full-length AM was able to dissociate”.
In the case of “AM34-52: AM truncated polypeptide (TDKDKDNVAPRSKISPQGY)”, the “Competition” value is reported as “only full-length AM was able to dissociate”.
In the case of “amylin (KCNTATCATQRLANFLVHSSNNFGAILSSTNVGSNTY; not fully specified (C-terminus, bridges); cysteine pairing not given here; UniProt P10997 34-70, looked up)”, the “Competition” value is reported as “only full-length AM was able to dissociate”.
In the case of calcitonin gene-related peptides [CGRP], the “Competition” value is reported as “only full-length AM was able to dissociate”.
For insulin-like growth factor [IGF-1], the “Competition” value was “only full-length AM was able to dissociate”.
With “proadrenomedullin N-terminal 20 peptide (ARLDVASEFRKKWNKWALSR) [PAMP]” the “Competition” value was “only full-length AM was able to dissociate”.

Biological target: factor H (Homo sapiens, UniProt P08603)
Sequence (P08603 19-1231): as the sequence (P08603 19-1231) above
Experiment: Multi-well plate competition of fluorescein-labeled AM binding to factor H
Design: purchased Sigma
Conditions: 50 nM fluorescein-labeled AM; factor H 5 ng/well; increasing concentrations of unlabeled competitor
Protocol: Lane 1: horseradish peroxidase (5 μg), a glycosylated protein used as positive control; Lane 2: soybean trypsin inhibitor (5 μg), a non-glycosylated protein used as negative control; Lane 3: AMBP-1 (2 μg). […] Lane 1: isoelectric focusing markers; Lane 2: AMBP-1 (4 μg). […] Lane 1: AMBP-1 (100 ng); Lane 2: AMBP-1 (200 ng); Lane 3: commercially available human factor H (50 ng); Lane 4: human plasma (0.2 μl). […] Results represent one of two independent experiments. Values represent mean and standard deviation of three determinations. “B/B0” indicates the ratio of signals generated in the presence/absence of unlabeled competitor.
(§1) Alternatively, the AM/fH interaction was analyzed using a multi-well assay. In accordance with this assay, a 96-well polyvinylchloride (PVC) plate was coated with factor H (5 ng/well, Sigma, St. Louis, Mo.). The plate was blocked with a solution containing TBS, 0.1% ATC, and 0.1% TWEEN® 20 nonionic detergent, and then incubated with fluorescein-labeled AM (50 nM) for 2 hr. Prior to the development of the assay, the wells were incubated for various time periods with PBS or 3M NaSCN pH 7.4. Following this, the plate was washed and incubated with anti-fluorescein polyclonal antibody (1:1000, Molecular Probes) and ^125I-Protein A (Amersham Pharmacia Biotech). Radioactivity was determined using a gamma counter. FIG. 6B.
In the case of calcitonin gene-related peptides [CGRP], the “Effect on binding of fluorescein-labeled AM to factor H-coated plate” value is reported as “not affected”.
For “proadrenomedullin N-terminal 20 peptide (ARLDVASEFRKKWNKWALSR) [PAMP]”, the “Effect on binding of fluorescein-labeled AM to factor H-coated plate” value was “not affected”.

Biological target: AM/fH complex (Homo sapiens, UniProt P08603)
Sequence (P08603 19-1231, one chain of several): as the sequence (P08603 19-1231) above
Experiment: not given
Conditions: 3M NaSCN
Protocol: as §1
For `N#C[S-].[Na+]` [NaSCN, sodium thiocyanate], the “Dissociation of AM/fH complex” value was “dissociated”.

System: not listed separately
Experiment: Storage of non-radioactively labeled AM
Assay type: physicochemical
Conditions: stored at 4° C. for as long as 3 months
Protocol: Non-radioactive labeling of AM was accomplished by conjugating synthetic AM comprising amino acids 1-52 (Phoenix Pharmaceuticals, Inc., Mountainview, Calif.) with succinimidyl esters linked to biotin (Pierce Chemical Co., Rockford, Ill.), fluorescein (Molecular Probes, Inc., Eugene, Oreg.), or dinitrophenol (DNP; Molecular Probes, Inc.). Briefly, 100 μg of AM (16 μM) was dissolved in 1 ml of 50 mM sodium bicarbonate, pH 8.5, and the succinimidyl ester was added to yield a final molar concentration of 10:1 (linker:AM). The mixture was incubated with slow agitation for 1 hr at room temperature and the reaction was terminated by the addition of 0.1 M ethanolamine followed by another incubation for 1 hr. Unincorporated ligand was removed by extracting the AM using reverse phase SEP-PAK® C-18 solid-phase extraction cartridges (Waters, Milford, Mass.) and eluting the sample with acidic-isopropanol. The extract was lyophilized and reconstituted in 1 ml of TBS (0.05 M Tris-HCl, 0.15 M NaCl), 0.1% alkali-treated casein (ATC), 0.1% TWEEN® 20 nonionic detergent, and 0.05% TRITON® X-100 nonionic detergent, pH 7.4.
With “Labeled AM: synthetic AM 1-52 conjugated via succinimidyl esters to biotin, fluorescein or dinitrophenol” the “Storage stability (activity)” value was “without significant loss of activity”.

— patent US7659081B2, “Determination of AM-binding proteins and the association of adrenomedullin (AM) therewith” (The United States of America as represented by the …, priority 1999, dated 2010)
